Data published in IntAct's records for PubMed 28424519.

biological target: snf2_yeast SNF2 (UniProt P22082)
Chain of UniProt P22082 (P22082 whole entry): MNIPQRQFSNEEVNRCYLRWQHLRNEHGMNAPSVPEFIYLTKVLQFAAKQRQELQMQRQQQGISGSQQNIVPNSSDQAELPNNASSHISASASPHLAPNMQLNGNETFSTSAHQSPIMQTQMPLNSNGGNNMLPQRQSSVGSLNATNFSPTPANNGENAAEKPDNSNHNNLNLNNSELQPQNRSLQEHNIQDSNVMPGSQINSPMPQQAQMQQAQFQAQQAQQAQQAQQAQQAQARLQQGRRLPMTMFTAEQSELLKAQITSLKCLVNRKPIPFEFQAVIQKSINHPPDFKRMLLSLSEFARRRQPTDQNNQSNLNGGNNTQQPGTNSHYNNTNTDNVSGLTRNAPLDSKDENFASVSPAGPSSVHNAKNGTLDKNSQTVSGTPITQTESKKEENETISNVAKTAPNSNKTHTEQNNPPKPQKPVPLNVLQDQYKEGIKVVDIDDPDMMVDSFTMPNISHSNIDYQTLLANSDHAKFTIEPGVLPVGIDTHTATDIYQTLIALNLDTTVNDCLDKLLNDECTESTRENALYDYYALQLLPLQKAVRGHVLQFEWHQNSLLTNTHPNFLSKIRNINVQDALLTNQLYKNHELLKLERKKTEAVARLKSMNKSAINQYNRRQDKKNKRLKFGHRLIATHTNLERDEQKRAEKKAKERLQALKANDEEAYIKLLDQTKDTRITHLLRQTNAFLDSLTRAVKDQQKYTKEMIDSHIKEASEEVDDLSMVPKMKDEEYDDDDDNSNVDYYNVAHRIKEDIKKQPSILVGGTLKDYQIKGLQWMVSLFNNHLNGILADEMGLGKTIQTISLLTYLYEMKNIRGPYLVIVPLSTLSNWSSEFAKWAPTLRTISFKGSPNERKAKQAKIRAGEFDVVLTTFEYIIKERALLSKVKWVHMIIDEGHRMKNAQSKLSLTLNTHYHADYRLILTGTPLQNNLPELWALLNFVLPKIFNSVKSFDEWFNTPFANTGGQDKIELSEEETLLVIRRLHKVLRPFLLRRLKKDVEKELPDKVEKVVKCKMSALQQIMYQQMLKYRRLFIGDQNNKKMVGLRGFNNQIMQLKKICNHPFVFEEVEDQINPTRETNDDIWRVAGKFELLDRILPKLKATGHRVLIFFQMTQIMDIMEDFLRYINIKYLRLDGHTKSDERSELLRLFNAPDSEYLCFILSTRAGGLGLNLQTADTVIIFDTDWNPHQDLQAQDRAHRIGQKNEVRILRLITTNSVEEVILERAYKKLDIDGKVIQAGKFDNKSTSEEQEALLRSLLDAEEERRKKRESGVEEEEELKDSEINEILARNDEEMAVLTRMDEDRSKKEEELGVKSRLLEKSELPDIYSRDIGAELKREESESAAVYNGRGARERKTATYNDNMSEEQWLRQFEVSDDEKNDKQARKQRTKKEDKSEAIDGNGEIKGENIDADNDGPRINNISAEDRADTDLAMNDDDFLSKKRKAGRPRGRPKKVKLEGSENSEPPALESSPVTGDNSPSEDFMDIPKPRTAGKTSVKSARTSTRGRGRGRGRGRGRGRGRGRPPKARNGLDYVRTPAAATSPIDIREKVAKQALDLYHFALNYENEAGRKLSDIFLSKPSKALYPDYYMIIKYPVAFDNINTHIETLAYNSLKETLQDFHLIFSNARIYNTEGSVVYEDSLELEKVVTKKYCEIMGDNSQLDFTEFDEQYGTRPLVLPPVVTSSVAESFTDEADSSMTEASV

Effect of a mutation on the interaction, decreasing interaction:
Histone H4 (Saccharomyces cerevisiae) (from UniProt P02309) K17A
Histone H4 (Saccharomyces cerevisiae) (from UniProt P02309) K17A;R18A;R20A
Histone H4 (Saccharomyces cerevisiae) (from UniProt P02309) R18A
Histone H4 (Saccharomyces cerevisiae) (from UniProt P02309) R20A
